Data reported in patent publication US12161669.

Experiments:
[1] = target: RhoB GTPase, recombinant (full length RhoB with the C-terminal CKVL motif deleted, six-HIS tag, expressed in E. coli) (UniProt P62745); experiment: BLI (BLItz), RhoB immobilised on Ni-NTA biosensor, B30.2 domain in solution, 1:1 fit, no pAg
[2] = target: RhoB GTPase, recombinant (full length RhoB with the C-terminal CKVL motif deleted, six-HIS tag, expressed in E. coli) (UniProt P62745); experiment: BLI (BLItz), RhoB immobilised on Ni-NTA biosensor, B30.2 domain in solution, 1:1 fit, no pAg; kd(1/Ms) [sic]
[3] = target: RhoB GTPase, recombinant (full length RhoB with the C-terminal CKVL motif deleted, six-HIS tag, expressed in E. coli) (UniProt P62745); experiment: BLI (BLItz), RhoB immobilised on Ni-NTA biosensor, BFI in solution with the phosphoantigen cHDMAPP at 1:1; kd(1/Ms) [sic]
[4] = target: RhoB GTPase, recombinant (full length RhoB with the C-terminal CKVL motif deleted, six-HIS tag, expressed in E. coli) (UniProt P62745); experiment: BLI (BLItz), RhoB immobilised on Ni-NTA biosensor, BFI in solution, 1:1 fit, no pAg
[5] = target: RhoB GTPase, recombinant (full length RhoB with the C-terminal CKVL motif deleted, six-HIS tag, expressed in E. coli) (UniProt P62745); experiment: BLI (BLItz), RhoB immobilised on Ni-NTA biosensor, BFI in solution with the phosphoantigen cHDMAPP at 1:1
[6] = target: RhoB GTPase, recombinant (full length RhoB with the C-terminal CKVL motif deleted, six-HIS tag, expressed in E. coli) (UniProt P62745); experiment: BLI (BLItz), RhoB immobilised on Ni-NTA biosensor, BFI in solution, 1:1 fit, no pAg; kd(1/Ms) [sic]

Kd [1]	koff [1]	kon [2]	kon [3]	Kd [4]	koff [4]	Kd [5]	koff [5]	kon [6]	Substance
102 µM	0.206 s⁻¹	2020 M⁻¹ s⁻¹	–	–	–	–	–	–	BTN3A1 (CD277) B30.2 domain, recombinant (from UniProt O00481 328-513) (receptor)
–	–	–	172 M⁻¹ s⁻¹	19.7 µM	0.0435 s⁻¹	666 µM	0.115 s⁻¹	2200 M⁻¹ s⁻¹	BTN3A1 (CD277) full-length intracellular domain, recombinant (from UniProt O00481 272-513) (receptor)
